B2: Sse1 (natural protein, yeast (S. cerevisiae), UniProt P32589 1-693, looked up)
chain: MSTPFGLDLGNNNSVLAVARNRGIDIVVNEVSNRSTPSVVGFGPKNRYLGETGKNKQTSNIKNTVANLKRIIGLDYHHPDFEQESKHFTSKLVELDDKKTGAEVRFAGEKHVFSATQLAAMFIDKVKDTVKQDTKANITDVCIAVPPWYTEEQRYNIADAARIAGLNPVRIVNDVTAAGVSYGIFKTDLPEGEEKPRIVAFVDIGHSSYTCSIMAFKKGQLKVLGTACDKHFGGRDFDLAITEHFADEFKTKYKIDIRENPKAYNRILTAAEKLKKVLSANTNAPFSVESVMNDVDVSSQLSREELEELVKPLLERVTEPVTKALAQAKLSAEEVDFVEIIGGTTRIPTLKQSISEAFGKPLSTTLNQDEAIAKGAAFICAIHSPTLRVRPFKFEDIHPYSVSYSWDKQVEDEDHMEVFPAGSSFPSTKLITLNRTGDFSMAASYTDITQLPPNTPEQIANWEITGVQLPEGQDSVPVKLKLRCDPSGLHTIEEAYTIEDIEVEEPIPLPEDAPEDAEQEFKKVTKTVKKDDLTIVAHTFGLDAKKLNELIEKENEMLAQDKLVAETEDRKNTLEEYIYTLRGKLEEEYAPFASDAEKTKLQGMLNKAEEWLYDEGFDSIKAKYIAKYEELASLGNIIRGRYLAKEEEKKQAIRSKQEASQMAAMAEKLAAQRKAEAEKKEEKKDTEGDVDMD
B3: Ssa1 (natural protein)
chain: not shown
notes: Ssa1, yeast Hsp70 chaperone, Uniprot ID P10591; also called Hsp70; yeast Hsp70; source: recombinant, expressed from pCA533-His6-SUMO-SSA1, purified using published protocols (Andréasson et al., 2008a)

Columns and labels:
Ssa1 [1] = molecular target: B3; assay: BLI; His-Sis1 (0.4 µM, to saturation) on the Ni-NTA sensor through the His6-SUMO tag; 1 µM Ssa1 with increasing concentrations of Sse1 or Sse1-2; buffer A with 5 mM ATP and 2 mM DTT; details: both partners purified
Chain of Ssa1 (P10591 whole entry): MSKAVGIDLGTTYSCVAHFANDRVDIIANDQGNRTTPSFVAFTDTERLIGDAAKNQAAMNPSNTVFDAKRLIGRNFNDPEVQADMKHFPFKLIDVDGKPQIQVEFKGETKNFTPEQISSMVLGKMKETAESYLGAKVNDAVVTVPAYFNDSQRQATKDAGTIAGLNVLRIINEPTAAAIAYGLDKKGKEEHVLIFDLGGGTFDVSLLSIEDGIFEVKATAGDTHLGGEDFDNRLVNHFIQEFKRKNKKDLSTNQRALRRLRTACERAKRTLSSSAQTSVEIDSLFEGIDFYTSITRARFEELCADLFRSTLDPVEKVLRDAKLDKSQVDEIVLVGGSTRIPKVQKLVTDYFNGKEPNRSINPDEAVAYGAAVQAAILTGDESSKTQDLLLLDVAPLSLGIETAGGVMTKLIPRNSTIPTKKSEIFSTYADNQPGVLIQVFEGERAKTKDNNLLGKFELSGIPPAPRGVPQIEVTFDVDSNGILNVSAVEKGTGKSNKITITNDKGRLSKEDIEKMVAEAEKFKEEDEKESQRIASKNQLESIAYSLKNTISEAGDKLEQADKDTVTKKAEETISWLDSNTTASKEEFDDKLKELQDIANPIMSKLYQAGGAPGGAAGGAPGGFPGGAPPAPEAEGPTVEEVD

Ssa1 [2] = molecular target: B3; assay: cell-based or functional assay
His6-SUMO-Sse1 = molecular target: T1, His6-SUMO-Sse1 (yeast (S. cerevisiae), UniProt P32589 1-693); assay: BLI; His-Sse1 (2.5 µM) or His-Sse1-2 (1 µM) on the Ni-NTA sensor through the His6-SUMO tag; Ssa1 at 32-16,000 nM; level of binding fitted with a one site-specific binding model; buffer A with 5 mM ATP and 2 mM DTT; details: both partners purified
T1 construct: Sse1, yeast Hsp110 nucleotide exchange factor, Uniprot ID P32589; Held on the Ni-NTA BLI sensor through the His6-SUMO tag; also called His-Sse1; His-See1; source: recombinant, purified as Sse1 with the proteolytic cleavage of the tag omitted
T1 sequence (looked up): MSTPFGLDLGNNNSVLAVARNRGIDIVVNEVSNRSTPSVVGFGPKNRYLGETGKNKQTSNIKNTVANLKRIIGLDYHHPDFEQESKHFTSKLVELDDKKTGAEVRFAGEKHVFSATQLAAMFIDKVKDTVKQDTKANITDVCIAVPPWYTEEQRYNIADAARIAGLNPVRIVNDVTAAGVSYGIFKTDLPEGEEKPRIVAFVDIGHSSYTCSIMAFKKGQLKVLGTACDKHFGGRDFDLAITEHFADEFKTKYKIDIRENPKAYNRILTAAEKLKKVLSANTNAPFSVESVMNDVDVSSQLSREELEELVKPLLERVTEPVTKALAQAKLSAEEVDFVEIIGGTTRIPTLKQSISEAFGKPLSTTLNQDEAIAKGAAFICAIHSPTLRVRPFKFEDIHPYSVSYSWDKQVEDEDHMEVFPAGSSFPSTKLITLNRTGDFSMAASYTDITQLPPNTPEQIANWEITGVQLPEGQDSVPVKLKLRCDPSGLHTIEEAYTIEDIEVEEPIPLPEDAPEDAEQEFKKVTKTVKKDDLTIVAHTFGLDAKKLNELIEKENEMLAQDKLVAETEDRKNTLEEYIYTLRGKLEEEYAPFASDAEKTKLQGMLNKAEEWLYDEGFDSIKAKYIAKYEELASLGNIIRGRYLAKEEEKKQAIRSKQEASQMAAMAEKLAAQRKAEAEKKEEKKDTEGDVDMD

Sse1 = molecular target: B2; assay: BLI; His-Sis1 (0.4 µM, to saturation) on the Ni-NTA sensor through the His6-SUMO tag; 1 µM Ssa1 with increasing concentrations of Sse1 or Sse1-2; buffer A with 5 mM ATP and 2 mM DTT; details: both partners purified

B1: Sis1 immobilised through the His6-SUMO tag (natural protein, yeast (S. cerevisiae), UniProt P25294 1-352, looked up)
chain: MVKETKLYDLLGVSPSANEQELKKGYRKAALKYHPDKPTGDTEKFKEISEAFEILNDPQKREIYDQYGLEAARSGGPSFGPGGPGGAGGAGGFPGGAGGFSGGHAFSNEDAFNIFSQFFGGSSPFGGADDSGFSFSSYPSGGGAGMGGMPGGMGGMHGGMGGMPGGFRSASSSPTYPEEETVQVNLPVSLEDLFVGKKKSFKIGRKGPHGASEKTQIDIQLKPGWKAGTKITYKNQGDYNPQTGRRKTLQFVIQEKSHPNFKRDGDDLIYTLPLSFKESLLGFSKTIQTIDGRTLPLSRVQPVQPSQTSTYPGQGMPTPKNPSQRGNLIVKYKVDYPISLNDAQKRAIDENF
notes: Sis1, yeast class B J-domain protein, Uniprot ID P25294; also called His-Sis1; class B JDP
B1: binds (Ssa1 [1]).

With B2 the “inhibition of the refolding of aggregated luciferase by Ssa1-Ydj1 (1 µM each), titration of Sse1, activity after 1 hr” value (Ssa1 [2]) was 0.1 µM.

B3: binds (His6-SUMO-Sse1); binds (Sse1).
